According to article PMC8193015:
Like-named read-outs stand apart in the source and are kept apart here. Ends that are not written are not given here.

Experiments:
[1] = biological target: “empty” DQ6 (DQA1*01:02/DQB1*06:02) with leucine zippers displayed on yeast as a noncovalent αβ heterodimer (human); assay: flow cytometry on cells
[2] = biological target: soluble DR4 (sDR4) recombinant protein (human); assay: ELISA
[3] = biological target: soluble DQ6 (sDQ6) recombinant protein, CLIP87–101 linker cleaved by thrombin (human); assay: ELISA
[4] = biological target: soluble DQ6 (sDQ6) recombinant protein, CLIP87–101 linker cleaved by thrombin (human); assay: ELISA; remark: listed apart in the source
[5] = biological target: “empty” DQ6 (DQA1*01:02/DQB1*06:02) with leucine zippers displayed on yeast as a noncovalent αβ heterodimer (human); assay: flow cytometry on cells; remark: listed apart in the source

Molecule | %Competition [1] [%] | further results
HCRT53–67 peptide (from UniProt O43612 53-67) | > 50 | 
HCRT85–99 peptide (from UniProt O43612 85-99) | > 50 | 
SARS-CoV-2 spike peptide S652–668 (from UniProt P0DTC2 652-668) |  | %Competition at [competitor]:[indicator] = 100 [2]: < 50%
SARS-CoV-2 spike peptide S1058–1074 (from UniProt P0DTC2 1058-1074) |  | fold weaker BA than HA306–318 (IC50 normalised to HA306–318) [2]: 20 fold
HCRT21–35 peptide (from UniProt O43612 21-35) | > 50 | 
HCRT25–39 peptide (from UniProt O43612 25-39) | > 50 | 
HCRT57–71 peptide (from UniProt O43612 57-71) | > 50 | 
HA306–318 peptide, nonbiotinylated |  | %Competition at [competitor]:[indicator] = 10 [2]: 75%
HCRT89–103 peptide (from UniProt O43612 89-103) | > 75 | %Competition at [competitor]:[indicator] = 100 [3]: > 75%; %Competition at [competitor]:[indicator] = 10 [1]: > 75%
HCRT81–95 peptide (from UniProt O43612 81-95) | > 50 | 
HCRT1–15 peptide (from UniProt O43612 1-15) | > 50 | 
MNLPSTKVSWAAV (not fully specified) [HCRT1–13 peptide, nonbiotinylated] |  | %Competition at [competitor]:[indicator] = 10 [4]: 75%; %Competition at [competitor]:[indicator] = 10 [5]: 75%; IC50 [5]: 30 µM
